In paper PMC4866608 (Archives of biochemistry and biophysics, 2015):

How the values were obtained:
[1] = target: T1, NahI (GH-NahI) (Pseudomonas putida, UniProt Q1XGK8); assay: CD thermal denaturation at […] nm; assay type: binding; settings: 50 mM sodium phosphate pH 7.4, 50 mM NaCl, 0.3 mg/mL protein; two-step denaturation
T1 sequence (Q1XGK8 1-486): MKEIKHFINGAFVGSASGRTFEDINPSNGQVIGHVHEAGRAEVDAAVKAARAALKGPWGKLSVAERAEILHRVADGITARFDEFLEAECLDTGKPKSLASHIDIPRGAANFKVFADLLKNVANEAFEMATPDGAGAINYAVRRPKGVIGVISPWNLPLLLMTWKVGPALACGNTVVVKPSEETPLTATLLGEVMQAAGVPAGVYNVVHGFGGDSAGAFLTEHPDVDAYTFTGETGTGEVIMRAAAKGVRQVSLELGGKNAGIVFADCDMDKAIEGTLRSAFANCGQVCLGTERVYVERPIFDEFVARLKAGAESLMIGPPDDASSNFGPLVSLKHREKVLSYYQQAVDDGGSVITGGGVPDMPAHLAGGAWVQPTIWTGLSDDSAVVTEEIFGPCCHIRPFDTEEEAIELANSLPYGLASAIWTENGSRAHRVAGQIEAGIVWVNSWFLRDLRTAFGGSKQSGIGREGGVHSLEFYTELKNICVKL

[2] = target: 2-hydroxymuconate semialdehyde dehydrogenase (NahI) from Pseudomonas putida G7, His-tag removed (GH-NahI) (Pseudomonas putida G7); assay: dynamic light scattering
[3] = target: 2-hydroxymuconate semialdehyde dehydrogenase (NahI) from Pseudomonas putida G7, His-tag removed (GH-NahI) (Pseudomonas putida G7); assay: small-angle X-ray scattering

Row | Compound | second transition temperature of the NAD+ complex (apo enzyme 73.9 °C) [1] [°C] | stoichiometry N [2] | stoichiometry N [3]
1 | NC(=O)c1ccc[n+]([C@@H]2O[C@H](COP(=O)(O)OP(=O)(O)OC[C@H]3O[C@@H](n4cnc5c(N)ncnc54)[C@H](O)[C@@H]3O)[C@@H](O)[C@H]2O)c1 [NAD^+] | 76.7 |  | 
2 | 2-hydroxymuconate semialdehyde dehydrogenase (NahI) from Pseudomonas putida G7, His-tag removed (GH-NahI) (enzyme) |  | 3 | 4
